Experimental data reported in publication PMC4234381, “Evolution of Acyl-Substrate Recognition by a Family of Acyl-Homoserine Lactone Synthases” (PLoS ONE, 2014).

Tests used:
[1] = biological target: Sfp (Bacillus subtilis, UniProt P39135); test: enzymatic transfer of octyl-phosphopantetheine to apo-ACP, mass spectrum of product; assay type: biochemical; conditions: co-substrate E. coli apo-AcpP; preparative synthesis, 20:1 acyl-CoA to ACP
[2] = biological target: BjaI (Bradyrhizobium diazoefficiens, UniProt Q89VI2); test: DCPIP microplate assay
[3] = substrate: CC(C)CC(=O)SCCNC(=O)CCNC(=O)[C@H](O)C(C)(C)COP(=O)(O)OP(=O)(O)OC[C@H]1O[C@@H](n2cnc3c(N)ncnc32)[C@H](O)[C@@H]1OP(=O)(O)O; test: purified protein; conditions: 500 µM SAM, 1 µM BjaI, HEPES, final pH 7.3
[4] = substrate: C[S+](CC[C@H](N)C(=O)O)C[C@H]1O[C@@H](n2cnc3c(N)ncnc32)[C@H](O)[C@@H]1O; test: purified protein; conditions: 250 µM isovaleryl-CoA, HEPES, final pH 7.3

Sequence of Sfp (P39135 whole entry): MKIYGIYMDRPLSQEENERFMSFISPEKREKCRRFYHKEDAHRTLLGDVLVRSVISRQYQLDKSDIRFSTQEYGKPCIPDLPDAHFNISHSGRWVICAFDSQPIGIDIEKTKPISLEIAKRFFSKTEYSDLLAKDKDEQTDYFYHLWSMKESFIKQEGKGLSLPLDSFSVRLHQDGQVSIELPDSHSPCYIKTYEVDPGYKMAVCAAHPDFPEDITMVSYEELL

## CCCCCCCCSCCNC(=O)CCNC(=O)[C@H](O)C(C)(C)COP(=O)(O)OP(=O)(O)OC[C@H]1O[C@@H](n2cnc3c(N)ncnc32)[C@H](O)[C@@H]1OP(=O)(O)O [octyl-CoA sulfide]
[1]
  enzymatic transfer of octyl-phosphopantetheine to apo-ACP, mass spectrum of prod: enzymatic transfer of the alkyl-PPant to apo-ACP using Bacillus subtilis Sfp PPant transferase

## CC(C)CCSCCNC(=O)CCNC(=O)[C@H](O)C(C)(C)COP(=O)(O)OP(=O)(O)OC[C@H]1O[C@@H](n2cnc3c(N)ncnc32)[C@H](O)[C@@H]1OP(=O)(O)O [isopentyl-CoA]
[2]
  Ki: 21 ± 1 µM

B1: BjaI (Bradyrhizobium diazoefficiens USDA 110) (protein)
chain: MIHAISAVNRHLYEDVLEQHFRLRHDIFVEERHWETLRRPDGREVDSYDDEDTVYLLALEGRRVVGGHRLYPTTKPSMMSEVFPHLAAVRGCPSDPLIWEWSRYFVVRDRRDGALNLQLMAAVQEFCLDQGIAQVSAIMETWWLPRFHEAGFVVTPLGLPALVENAWTMAATVDIRRQTLDVLHDRIGMPSIVQQDGPRLDAVARANLCGLAAAQRKSA
[3]
  Km: 7.0 ± 0.5 µM
  kcat: 0.021 ± 0.03 s⁻¹
  kcat/Km: 3000 M⁻¹ s⁻¹
[4]
  Km: 39 ± 4 µM
